# Measurements as given in patent US20170355774A1 (Regeneron, published 2017).
# T1: hGITR.mmh (human)
# T1 construct: soluble monomeric construct; also called human (h) GITR.mmh; monomeric human GITR
# T1 chain: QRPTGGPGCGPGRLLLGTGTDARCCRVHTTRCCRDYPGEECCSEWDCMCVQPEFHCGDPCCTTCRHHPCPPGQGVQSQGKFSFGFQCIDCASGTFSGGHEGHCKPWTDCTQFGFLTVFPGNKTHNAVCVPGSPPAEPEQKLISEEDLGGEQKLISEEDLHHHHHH
# T2: hGITR.mFc (human)
# T2 construct: soluble dimeric construct with mouse Fc; also called dimeric human GITR
# T2 chain: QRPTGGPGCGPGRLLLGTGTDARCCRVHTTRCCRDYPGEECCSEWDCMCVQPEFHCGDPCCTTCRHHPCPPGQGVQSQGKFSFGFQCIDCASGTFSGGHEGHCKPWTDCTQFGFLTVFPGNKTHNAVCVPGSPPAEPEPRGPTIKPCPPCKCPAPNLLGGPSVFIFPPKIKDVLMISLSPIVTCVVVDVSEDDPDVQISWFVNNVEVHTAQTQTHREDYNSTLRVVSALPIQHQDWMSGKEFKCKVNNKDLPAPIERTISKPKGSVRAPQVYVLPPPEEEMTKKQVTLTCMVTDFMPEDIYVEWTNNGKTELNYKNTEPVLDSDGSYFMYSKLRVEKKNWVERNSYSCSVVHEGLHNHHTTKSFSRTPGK
# T3: mfGITR.mmh (Macaca fasicularis)
# T3 construct: soluble monomeric construct; also called Macaca fasicularis (mf) GITR.mmh; cynomolgus GITR protein
# T3 chain: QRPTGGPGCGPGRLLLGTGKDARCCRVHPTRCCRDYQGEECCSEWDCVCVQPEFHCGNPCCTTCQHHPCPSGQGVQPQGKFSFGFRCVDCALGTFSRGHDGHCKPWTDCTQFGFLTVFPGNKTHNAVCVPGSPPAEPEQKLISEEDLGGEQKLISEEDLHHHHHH
# T4: human GITR (amino acids M1-V241, NCBI Accession #NP_004186.1) expressed on cells (human, UniProt Q9Y5U5 26-241)
# T4 sequence: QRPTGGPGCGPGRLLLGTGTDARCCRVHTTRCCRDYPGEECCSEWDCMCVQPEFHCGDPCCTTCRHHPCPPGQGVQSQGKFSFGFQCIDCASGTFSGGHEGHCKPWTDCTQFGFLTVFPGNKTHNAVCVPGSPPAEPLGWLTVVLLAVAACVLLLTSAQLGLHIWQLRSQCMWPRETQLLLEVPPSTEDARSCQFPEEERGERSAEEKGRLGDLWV
# B1: H4H14536P2 (antibody, human IgG4, V domains shown)
# VH: QVQLQESGPGLVKPSETLSLTCIVSGGSISGYFWNWIRQPPGKGLEWIGYIYYSGTTIYNPSLKSRFTISLDTSKNQFSLKLTSVTAADTAVYYCARESYNPSPRYFDHWGQGTLVTVSS
# VL: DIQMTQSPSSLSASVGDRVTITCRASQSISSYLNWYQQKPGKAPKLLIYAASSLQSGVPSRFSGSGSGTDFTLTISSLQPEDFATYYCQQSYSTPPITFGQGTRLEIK
# notes: human IgG4 (H4H)
# B2: H4H14475P (antibody, human IgG4, V domains shown)
# VH: QVQLVESGGGVVQPGRSLRLSCAASGTIFSTHGMHWVRQAPGKGLEWVAVISYDGNKKYYAGSVKGRFTISRDNSKNTLYLQMNDVRSEDTAVYHCTTDITGITDYWGQGTLVTVSS
# VL: DIQMTQSPSSLSASVGDRVTITCRASQGIGNDLGWYQQKLGKAPKRLIYAASSLESGVPSRFSGSGSGTEFILTISSLQAEDFATYYCLQHNGFPTFGQGTKVEIK
# notes: human IgG4 (H4H)
# Key:
# hGITR.mmh = target: T1, hGITR.mmh; assay: SPR 37C, mAb capture
# hGITR.mFc = target: T2, hGITR.mFc; assay: SPR 37C, mAb capture
# mfGITR.mmh = target: T3, mfGITR.mmh; assay: SPR 37C, mAb capture
# [1] = target: T4, human GITR (amino acids M1-V241, NCBI …); assay: cell-based or functional assay
# [2] = target: T4, human GITR (amino acids M1-V241, NCBI …); assay: cell-based or functional assay; remark: listed apart in the source
# [3] = target: T4, human GITR (amino acids M1-V241, NCBI …); assay: cell-based or functional assay; remark: listed apart in the source
# [4] = target: T4, human GITR (amino acids M1-V241, NCBI …); assay: cell-based or functional assay; remark: listed apart in the source
# [5] = target: T4, human GITR (amino acids M1-V241, NCBI …); assay: ECL cell binding, hGITR/HEK293-D9
# Method in brief: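 Cells blocked with 2% BSA, then antibody dilutions from 1.7 pM to 100 nM added 1 h at RT. Bound antibody detected with SULFO-TAG anti-human kappa antibody, electrochemiluminescence read, RLU fitted by four-parameter logistic; signal at 100 nM on hGITR cells versus parental cells also recorded.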
# [6] = target: T4, human GITR (amino acids M1-V241, NCBI …); assay: cell-based or functional assay; remark: listed apart in the source
# [7] = target: T4, human GITR (amino acids M1-V241, NCBI …); assay: cell-based or functional assay; remark: listed apart in the source
# [8] = target: T4, human GITR (amino acids M1-V241, NCBI …); assay: cell-based or functional assay; remark: listed apart in the source
binder,measurement,setting,value
B1,Kd,hGITR.mmh,23 nM
same,koff,hGITR.mmh,0.00976 s⁻¹
same,kon,hGITR.mmh,424000 M⁻¹ s⁻¹
same,t½,hGITR.mmh,1.2 min
same,Kd,hGITR.mFc,0.173 nM
same,koff,hGITR.mFc,0.000219 s⁻¹
same,kon,hGITR.mFc,1.26e+06 M⁻¹ s⁻¹
same,t½,hGITR.mFc,52.7 min
same,Kd,mfGITR.mmh,142 nM
same,koff,mfGITR.mmh,0.0147 s⁻¹
same,kon,mfGITR.mmh,104000 M⁻¹ s⁻¹
same,t½,mfGITR.mmh,0.8 min
same,"% Activation, NF-kB-Luc, non-anchored",[1],20%
same,"% Blocking, NF-kB-Luc, non-anchored",[1],90%
same,"EC50, hGITR activation, NF-kB-Luc, non-anchored",[1],1.1 nM
same,"IC50, blocking of hGITRL stimulation, NF-kB-Luc, non-anchored",[1],2 nM
same,"fold activation, T-cell proliferation, plate-bound Ab 10.6 nM, donor 1",[2],3 fold
same,"fold activation, T-cell proliferation, plate-bound Ab 10.6 nM, donor 2",[2],24 fold
same,"fold activation, T-cell proliferation, plate-bound Ab 10.6 nM, donor 3",[2],24 fold
same,"fold activation, T-cell proliferation, plate-bound Ab 10.6 nM, donor 4",[2],25 fold
same,"fold activation, T-cell proliferation, plate-bound Ab 10.6 nM, donor 5",[2],24 fold
same,"fold activation, T-cell proliferation, plate-bound Ab 10.6 nM, donor 6",[2],47 fold
same,"fold activation, T-cell proliferation, plate-bound Ab 10.6 nM, donor 7",[2],26 fold
same,"fold activation, T-cell proliferation, plate-bound Ab 10.6 nM, donor 8",[2],16 fold
same,"fold activation, T-cell proliferation, plate-bound Ab 10.6 nM, mean",[2],23 fold
same,"EC50, hGITR activation, NF-kB-Luc, FcgR anchored",[3],0.01 nM
same,"Fold Activation over basal signal, NF-kB-Luc, FcgR anchored",[3],5 fold
same,"IC50, blocking of hGITRL stimulation, NF-kB-Luc, FcgR anchored",[3],0.2 nM
same,"fold activation, T-cell proliferation, 33 nM, FcgR anchored, donor 1",[4],1.3 fold
same,"fold activation, T-cell proliferation, 33 nM, FcgR anchored, donor 2",[4],6.3 fold
same,"fold activation, T-cell proliferation, 33 nM, FcgR anchored, donor 3",[4],1.5 fold
same,"fold activation, T-cell proliferation, 33 nM, FcgR anchored, donor 4",[4],2.7 fold
same,"fold activation, T-cell proliferation, 33 nM, FcgR anchored, donor 5",[4],15.7 fold
same,"fold activation, T-cell proliferation, 33 nM, FcgR anchored, mean",[4],5.5 fold
same,Average Signal (RLU) at 100 nM,[5],8960 RLU
same,EC50,[5],0.36 nM
same,"EC50, T-cell proliferation, non-anchored, average",[6],8.3 nM
same,"EC50, T-cell proliferation, non-anchored, donor 1",[6],12.2 nM
same,"EC50, T-cell proliferation, non-anchored, donor 2",[6],6.4 nM
same,"EC50, T-cell proliferation, non-anchored, donor 3",[6],9 nM
same,"EC50, T-cell proliferation, non-anchored, donor 4",[6],5.7 nM
same,"fold activation, T-cell proliferation, 22 nM, non-anchored, donor 1",[7],6.2 fold
same,"fold activation, T-cell proliferation, 22 nM, non-anchored, donor 2",[7],4.2 fold
same,"fold activation, T-cell proliferation, 22 nM, non-anchored, donor 3",[7],10.1 fold
same,"fold activation, T-cell proliferation, 22 nM, non-anchored, donor 4",[7],23.4 fold
same,"fold activation, T-cell proliferation, 22 nM, non-anchored, mean",[7],11 fold
same,"EC50, T-cell proliferation, FcgR anchored, donor 1",[8],1.2 nM
same,"EC50, T-cell proliferation, FcgR anchored, donor 2",[8],0.5 nM
same,"EC50, T-cell proliferation, FcgR anchored, donor 3",[8],1.3 nM
same,"EC50, T-cell proliferation, FcgR anchored, donor 4",[8],11.2 nM
same,"EC50, T-cell proliferation, FcgR anchored, donor 5",[8],1.6 nM
same,"EC50, T-cell proliferation, FcgR anchored, mean",[8],3.2 nM
B2,Kd,hGITR.mmh,45.7 nM
same,koff,hGITR.mmh,0.014 s⁻¹
same,kon,hGITR.mmh,307000 M⁻¹ s⁻¹
same,t½,hGITR.mmh,0.8 min
same,Kd,hGITR.mFc,0.847 nM
same,koff,hGITR.mFc,0.00135 s⁻¹
same,kon,hGITR.mFc,1.6e+06 M⁻¹ s⁻¹
same,t½,hGITR.mFc,8.5 min
same,Kd,mfGITR.mmh,41.7 nM
same,koff,mfGITR.mmh,0.00765 s⁻¹
same,kon,mfGITR.mmh,183000 M⁻¹ s⁻¹
same,t½,mfGITR.mmh,1.5 min
same,"% Activation, NF-kB-Luc, non-anchored",[1],70%
same,"% Blocking, NF-kB-Luc, non-anchored",[1],-2%
same,"EC50, hGITR activation, NF-kB-Luc, non-anchored",[1],1 nM
same,"fold activation, T-cell proliferation, plate-bound Ab 10.6 nM, donor 1",[2],0 fold
same,"fold activation, T-cell proliferation, plate-bound Ab 10.6 nM, donor 2",[2],2 fold
same,"fold activation, T-cell proliferation, plate-bound Ab 10.6 nM, donor 3",[2],2 fold
same,"fold activation, T-cell proliferation, plate-bound Ab 10.6 nM, donor 4",[2],2 fold
same,"fold activation, T-cell proliferation, plate-bound Ab 10.6 nM, donor 5",[2],2 fold
same,"fold activation, T-cell proliferation, plate-bound Ab 10.6 nM, donor 6",[2],12 fold
same,"fold activation, T-cell proliferation, plate-bound Ab 10.6 nM, donor 7",[2],1 fold
same,"fold activation, T-cell proliferation, plate-bound Ab 10.6 nM, donor 8",[2],0 fold
same,"fold activation, T-cell proliferation, plate-bound Ab 10.6 nM, mean",[2],3 fold
same,"EC50, hGITR activation, NF-kB-Luc, FcgR anchored",[3],0.04 nM
same,"Fold Activation over basal signal, NF-kB-Luc, FcgR anchored",[3],8 fold
same,"IC50, blocking of hGITRL stimulation, NF-kB-Luc, FcgR anchored",[3],0.2 nM
same,"fold activation, T-cell proliferation, 33 nM, FcgR anchored, donor 1",[4],1 fold
same,"fold activation, T-cell proliferation, 33 nM, FcgR anchored, donor 2",[4],1.3 fold
same,"fold activation, T-cell proliferation, 33 nM, FcgR anchored, donor 3",[4],1.3 fold
same,"fold activation, T-cell proliferation, 33 nM, FcgR anchored, donor 4",[4],1.6 fold
same,"fold activation, T-cell proliferation, 33 nM, FcgR anchored, donor 5",[4],1.5 fold
same,"fold activation, T-cell proliferation, 33 nM, FcgR anchored, mean",[4],1.3 fold
same,Average Signal (RLU) at 100 nM,[5],7500 RLU
same,EC50,[5],8 nM
same,"fold activation, T-cell proliferation, 22 nM, non-anchored, donor 1",[7],0.7 fold
same,"fold activation, T-cell proliferation, 22 nM, non-anchored, donor 2",[7],1.1 fold
same,"fold activation, T-cell proliferation, 22 nM, non-anchored, donor 3",[7],0.8 fold
same,"fold activation, T-cell proliferation, 22 nM, non-anchored, donor 4",[7],0.8 fold
same,"fold activation, T-cell proliferation, 22 nM, non-anchored, mean",[7],0.9 fold
